What was measured:
human PD-L1-Fc protein = target: T1, human PD-L1-Fc protein (human, UniProt Q9NZQ7 19-239); experiment: ELISA on coated PD-L1-Fc
T1 construct: Coated on ELISA plates; also called huPD-L1; not shown: Fc part

[1] = target: T2, human LAG3-His protein (Sinobio, 16498-H08H) (human, UniProt P18627 23-450); experiment: ELISA on coated LAG3-His
T2 construct: also called human LAG3 protein; not shown: His tag
T2 sequence (looked up): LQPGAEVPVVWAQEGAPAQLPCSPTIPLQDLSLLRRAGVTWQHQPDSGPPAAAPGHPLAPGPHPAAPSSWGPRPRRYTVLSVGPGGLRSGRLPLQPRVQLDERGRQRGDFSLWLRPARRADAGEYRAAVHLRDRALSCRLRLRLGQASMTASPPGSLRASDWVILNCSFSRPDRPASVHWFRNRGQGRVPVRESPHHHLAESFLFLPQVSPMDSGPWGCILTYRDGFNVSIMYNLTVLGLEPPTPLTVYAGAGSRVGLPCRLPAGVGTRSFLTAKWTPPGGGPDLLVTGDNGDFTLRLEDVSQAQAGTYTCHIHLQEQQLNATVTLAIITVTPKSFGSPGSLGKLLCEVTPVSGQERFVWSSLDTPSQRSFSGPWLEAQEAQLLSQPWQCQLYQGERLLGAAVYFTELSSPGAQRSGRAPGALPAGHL
From the text: To evaluate the binding activity to PD-L1 and LAG3 of the bispecific antibodies (BsAb; H12x147 and 147xH12) prepared in Example 3, the BsAb were subjected to ELISA test.

T1 sequence (Q9NZQ7 19-239 limits assumed): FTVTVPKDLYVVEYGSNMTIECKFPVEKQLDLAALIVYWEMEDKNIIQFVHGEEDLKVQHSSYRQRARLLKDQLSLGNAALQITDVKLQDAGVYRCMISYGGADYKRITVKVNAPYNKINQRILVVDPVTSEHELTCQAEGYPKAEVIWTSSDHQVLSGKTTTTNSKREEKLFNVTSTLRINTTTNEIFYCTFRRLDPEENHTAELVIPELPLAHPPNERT

binding result (human PD-L1-Fc protein): binds | binding result [1]: binds
B1: H12x147 (bispecific antibody, human IgG1, kappa, N297A)
heavy: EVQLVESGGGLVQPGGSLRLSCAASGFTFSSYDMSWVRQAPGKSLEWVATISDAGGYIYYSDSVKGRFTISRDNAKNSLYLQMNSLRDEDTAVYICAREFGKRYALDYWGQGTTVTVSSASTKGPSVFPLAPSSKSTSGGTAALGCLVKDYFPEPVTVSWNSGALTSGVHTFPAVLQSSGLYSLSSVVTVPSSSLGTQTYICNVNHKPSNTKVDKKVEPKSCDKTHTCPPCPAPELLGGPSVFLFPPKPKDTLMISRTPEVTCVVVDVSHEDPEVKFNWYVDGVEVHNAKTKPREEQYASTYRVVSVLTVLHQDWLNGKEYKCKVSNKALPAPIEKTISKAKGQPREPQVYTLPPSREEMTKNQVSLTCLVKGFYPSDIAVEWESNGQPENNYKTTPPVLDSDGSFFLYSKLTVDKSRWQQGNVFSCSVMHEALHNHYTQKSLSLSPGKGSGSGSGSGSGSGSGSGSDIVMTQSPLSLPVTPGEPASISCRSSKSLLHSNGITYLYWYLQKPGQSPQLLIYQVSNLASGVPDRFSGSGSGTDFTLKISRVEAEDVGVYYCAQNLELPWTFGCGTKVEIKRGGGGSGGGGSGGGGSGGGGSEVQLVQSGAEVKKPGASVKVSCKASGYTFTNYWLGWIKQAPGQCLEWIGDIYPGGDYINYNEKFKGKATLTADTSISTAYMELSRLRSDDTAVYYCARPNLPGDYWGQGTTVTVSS
light: DIQMTQSPSSLSASVGDRVTITCKASQDVTPAVAWYQQKPGKAPKLLIYSTSSRYTGVPSRFSGSGSGTDFTFTISSLQPEDIATYYCQQHYTTPLTFGQGTKLEIKRTVAAPSVFIFPPSDEQLKSGTASVVCLLNNFYPREAKVQWKVDNALQSGNSQESVTEQDSKDSTYSLSSTLTLSKADYEKHKVYACEVTHQGLSSPVTKSFNRGEC
notes: also called L1A3
